From patent US20070298510A1 (CANON, published 2007)

Target: T1, hen egg-white lysozyme (hen, UniProt P00698 19-147)
T1 construct: In solution in phosphate-buffered saline, captured in a sandwich between the first and second peptide molecules; also called HEL; target substance 173
Assay: sandwich on TMR element: immobilized scFv, HEL, Fab on magnetic beads; magnetic read-out

T1 sequence (P00698 19-147): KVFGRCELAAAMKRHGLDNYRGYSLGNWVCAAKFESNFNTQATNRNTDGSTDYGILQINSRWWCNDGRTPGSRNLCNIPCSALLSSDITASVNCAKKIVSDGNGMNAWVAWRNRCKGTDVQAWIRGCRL

B1: HyHEL10 scFv (single chain Fv of an anti-HEL antibody) (scFv)
scFv: DIVLTQSPATLSVTPGNSVSLSCRASQSIGNNLHWYQQKSHESPRLLIKYASQSISGIPSRFSGSGSGTDFTLSINSVETEDFGMYFCQQSNSWPYTFGGGTKLIITAGGGGSGGGGSGGGGSDIQLQESGPSLVKPSQTLSLTCSVTGDSITSDYWSWIRKFPGNRLEYMGYVSYSGSTYYNPSLKSRISITRDTSKNQYYLDLNSVTTEDTATYYCANWDGDYWGQGTLVTVSA
notes: Purified as a His-tag-fused polypeptide; In the assay it was immobilized on the silicon film or substrate via aminosilane and glutaraldehyde; also called scFv of the anti-HEL antibody; scFv of the HEL antibody
binding result: binds
